Results taken from patent publication US20230072640A1 (published 2023).

B1: human monoclonal antibody YFV-121 (antibody, V domains shown)
VH: EVQLVESGGGLVQPGGSLRLSCAASGFTFSSYSMNWVRQAPGKGLEWVSYISSSSRTIYYADSVKGRFTISRDNAKNSLDLQMNSLRDEDTAVYYCAREVSSHGYRYWGQGTLVTVSS
VL: EIVLTQSPATLSLSPGERATLSCRASQSVSSFLAWYQQKPGQAPRLLIYDASNRATGIPARFTGSGSGTDFTLTISSLEPEDFAVYYCQQRSNWPPWTFGQGTKVEIK
B2: human monoclonal antibody YFV-136 (antibody, V domains shown)
VH: QVQLQESGPGLVKPSGTLSLTCAVSGGSISSSNWWSWVRQPPGKGLEWIGDIYHSGSTSYNPSLKSRVTISVDRSKNQFSLKLSSVTAADTAVYYCARAPLVNWYYFDYWGQGTLVTVSS
VL: QSVLTQPPSVSAAPGQKVTISCSGSSSNIGNNYVSWYQQLPGTAPKLLIYDNNKGPSGIPDRFSGSKSGTSATLGITGLQTGDEADYYCGTWDTSLSAGRVFGGGTKLTVL

Target: recombinant YFV E protein (Meridian Life Science) (Yellow fever virus, UniProt P03314 286-679)
Sequence (P03314 286-679): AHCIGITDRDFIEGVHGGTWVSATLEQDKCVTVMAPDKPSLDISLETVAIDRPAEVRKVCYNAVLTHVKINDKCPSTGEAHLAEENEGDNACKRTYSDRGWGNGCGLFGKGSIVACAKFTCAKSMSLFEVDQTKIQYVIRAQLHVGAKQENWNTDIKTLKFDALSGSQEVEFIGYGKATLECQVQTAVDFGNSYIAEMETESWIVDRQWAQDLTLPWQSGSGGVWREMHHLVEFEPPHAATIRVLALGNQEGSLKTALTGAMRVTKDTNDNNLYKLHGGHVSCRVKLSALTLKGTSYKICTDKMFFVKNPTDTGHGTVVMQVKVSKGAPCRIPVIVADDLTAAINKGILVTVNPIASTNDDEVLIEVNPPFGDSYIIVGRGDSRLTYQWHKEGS
Test: ELISA

| Binder | EC50 [µg/mL] |
| --- | --- |
| B1 | 0.311 |
| B2 | 0.27 |
